For this experiment, the target named is T1, GST-SLK 950-1202 (GST-tagged SLK ATH domain) (murine, UniProt O54988 981-1233).
T1 construct: Bacterially expressed GST fusion on glutathione sepharose; also called GST-ATH; not shown: glutathione S-transferase (GST) tag of pGEX-5X or pGEX-4T1 (Amersham)
T1 sequence: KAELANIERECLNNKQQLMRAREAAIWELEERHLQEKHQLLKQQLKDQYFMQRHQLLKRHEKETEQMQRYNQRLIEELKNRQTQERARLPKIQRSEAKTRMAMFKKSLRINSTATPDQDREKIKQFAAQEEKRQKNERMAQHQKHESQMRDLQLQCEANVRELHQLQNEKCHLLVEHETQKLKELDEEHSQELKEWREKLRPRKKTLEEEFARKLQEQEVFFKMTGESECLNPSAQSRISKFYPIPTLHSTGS
The experiment can be described thus: binding of [35S]-labeled Ldb2 deletions to GST-ATH. As for the experimental part:
(c) Schematics of Myc epitope-tagged SLK deletion mutants. […] (d) Co-transfection of HA-tagged Ldb2 and Myc-tagged SLK deletion constructs was performed in HEK 293 cells. Extracts were immunoprecipitated with anti-HA antibody (12CA5) and immunoblotted with anti-Myc antibody (9E10) (bottom panel). Expression of the transfected constructs was confirmed by western blotting (top and middle panels). […] (e) Reciprocal co-IP showing that full length HA-SLK associates with Myc-Ldb1 and 2. (f) Association of endogenous SLK and Ldb. Ldb1 was immunoprecipitated from protein lysates obtained from MEF cells and primary neurons and subjected to western blot analysis with an anti-SLK antibody. A 220 KDa band corresponding to SLK co-precipitated with […]. Reciprocal immunoprecipitations were also performed on N1E 115 neuroblastoma cells or primary cortical neurons. A 50 Kda band corresponding to Ldb1 co-precipitated with SLK. As a control for non-specific binding to the sepharose beads, protein-A sepharose beads alone were added to 400 μg of the same protein lysates. Similar results were obtained with Ldb2
To map the Ldb1/2 domains of interaction, [35S]-labeled deletions of Ldb1 were assayed for binding to a GST-tagged SLK ATH domain (FIG. 17a). […] In addition, versions of Ldb2 lacking the C-terminal LIM binding domain (ΔLBD) were able to bind the SLK ATH domain while the LBD of Ldb2 by itself could not bind (FIG. 17b). Further deletion of 62 amino acids from the carboxy terminal end of the dimerization domain (DDΔC) retained binding thus refining the Ldb2 binding region to the SLK ATH domain in the C-terminal 124 amino acids of Ldb2. An analogous set of Ldb1 deletion mutants were tested for binding to GST-ATH with similar results (data not shown).

B1: HA-Ldb2 LBD (aa 298-373) (other, mouse, UniProt O55203 298-373, looked up, not shown: small tags and cut ends)
chain: DVMVVGEPTLMGGEFGDEDERLITRLENTQYDAANGMDDEEDFNNSPALGNNSPWNSKPPATQETKSENAPPQASQ
modifications: [35S]-methionine label
notes: In vitro translated
In the case of B1, the binding result is reported as “no binding”.

B2: HA-Ldb2 DD (aa 1-186) (other, mouse, UniProt O55203 1-186, looked up, not shown: small tags and cut ends)
chain: MSSTPHDPFYSSPFGPFYRRHTPYMVQPEYRIYEMNKRLQSRTEDSDNLWWDAFATEFFEDDATLTLSFCLEDGPKRYTIGRTLIPRYFSTVFEGGVTDLYYILKHSKESYHNSSITVDCDQCAMVTQHGKPMFTKVCTEGRLILEFTFDDLMRIKTWHFTIRQYRELVPRSILAMHAQDPQVLDQ
modifications: [35S]-methionine label
notes: In vitro translated; also called Ldb2 dimerization domain
As to B2, the binding result was “binds”.

B3: HA-Ldb2 NLS (aa 188-288) (other, mouse, UniProt O55203 188-288, looked up, not shown: small tags and cut ends)
chain: SKNITRMGLTNFTLNYLRLCVILEPMQELMSRHKTYNLSPRDCLKTCLFQKWQRMVAPPAEPTRQPTTKRRKRKNSTSSTSNSSAGNTTNSAGSKKKTPAA
modifications: [35S]-methionine label
notes: range 188-288; In vitro translated; also called Ldb2 nuclear localization signal domain
With B3, the binding result is “binds”.

The values above are taken from patent US20090081195A1 (OTTAWA HEALTH RESEARCH INSTITUTE, published 2009).
